Experimental findings from patent publication US20070020327A1 are described below.

In test [1] the target is HLA-A*0201 (human). Nature of the test: competition with 125I-labelled standard peptide 941.01 ([..]) for purified HLA-A*0201, gel filtration.
Test [2] concerns the target HLA-A*1101 (human). Nature of the test: competition with 125I-labelled standard peptide for purified HLA, gel filtration. The settings on record: for binding affinity ratio: scale: ratio. A general note: SEC sorts molecules by how far they enter the pores of the column.
The target of test [3] is HLA-A*0301 (human). The description is as above. Particulars: for binding affinity ratio: scale: ratio.
Test [4] concerns the target HLA-A*0201 (human). Nature of the test: competition with 125I-labelled standard peptide 941.01 for purified HLA-A*0201, gel filtration.
Test [5] concerns the target HLA-A*0201 (human). The experiment in a line: competition for purified HLA with 125I-labelled standard peptide 941.01 [..] as competitor, gel filtration. Particulars: scale: ratio.
The target of test [6] is HLA-A*0206 (human). The experiment in a line: competition with 125I-labelled standard peptide 941.01 for purified HLA, gel filtration. Particulars: scale: ratio.
Test [7] has as its target HLA-A*0201 (human). Described as above. The settings on record: scale: ratio.
[8] abbreviates: remark: other sources report otherwise.

As to SVTWIGAAPL (modifications not checked) [PSA peptide … (position 7, 10 amino acids)], in test [1], the binding affinity ratio (IC50 of standard peptide / IC50 of test peptide) was found to be 0.0001. For the molecule LLSLYGIHK (modifications not checked) [… (PAP, position 243)], in test [2], the binding affinity ratio (IC50 of standard peptide / IC50 of test peptide) turned out to be 0.2. On to TLRGAVEPDR (modifications not checked) [… (PSM, position 361)], for which the binding affinity ratio in test [2] was determined as 0.0002; in test [3], 0.0003. As for TAAHCIRNK (modifications not checked) [… (PSA, position 58)], the binding affinity ratio stood at 0.014 in test [2] (setting [8]) and 0.0094 in test [3] (setting [8]). In the case of RLHPYKDFI (modifications not checked) [… (PAP, position 180)], the binding affinity ratio (IC50 of standard peptide / IC50 of test peptide) in test [4] amounted to 0.0006. As to VTKFMLCAGR (modifications not checked) [… (PSA, position 188)], the results for the binding affinity ratio in test [2] (setting [8]) and in test [3] (setting [8]) were 0.012 and 0.0003, respectively. On to RLSEPAELT (modifications not checked) [… (PSA, position 121)], for which the binding affinity ratio (IC50 of standard peptide / IC50 of test peptide) in test [4] came out at 0.0003. As for TLSVTWIGA (modifications not checked) [PSA peptide … (position 5, 9 amino acids)], the binding affinity ratio (IC50 of standard peptide / IC50 of test peptide) in test [1] came to 0.0016. In the case of LVFRHGDR (modifications not checked) [LVFRKGDR (PAP, position 40)], the figures for the binding affinity ratio (IC50 of standard peptide / IC50 of test peptide) in test [2] and in test [3] were 0.0002 and 0.0003, respectively.

As for HVISNDVCA (modifications not checked) [… (PSA position 173, 9-mer)], the binding affinity ratio in test [5] stood at 0.0001. Regarding RAASLSLGFL (modifications not checked) [… (PAP, position 10)], the binding affinity ratio (IC50 of standard peptide / IC50 of test peptide) in test [4] is 0.0002. For the molecule TLRVDCTPLM (modifications not checked) [PSM peptide … (position 461, 10 amino acids)], the binding affinity ratio (IC50 of standard peptide / IC50 of test peptide) in test [1] was found to be 0.0008. Regarding GVQRGNILNL (modifications not checked) [… (PSM position 252, 10-mer)], in test [5], the binding affinity ratio is 0.0001. For the molecule WATEDTMTK (modifications not checked) [… (PAP, position 226)], the binding affinity ratio in test [2] worked out at 0.0002; in test [3], 0.0006. Turning to SVTWIGAAPLI (modifications not checked) [PSA peptide … (position 7, 11 amino acids)], the binding affinity ratio (IC50 of standard peptide / IC50 of test peptide) in test [1] came to 0.0001. Regarding IATLGKLSGL (modifications not checked) [… (PAP position 188, 10-mer)], the binding affinity ratio in test [5] is 0.0002. Turning to GITSWGPEPCA (modifications not checked) [Kallikrein (hK2) peptide … (position 225)], the binding affinity ratio was 0.0001 in test [6] (setting [8]) and 0.0009 in test [7] (setting [8]). Take TVPLSEDQL (modifications not checked) [PAP peptide … (position 145, 9 amino acids)]: the binding affinity ratio (IC50 of standard peptide / IC50 of test peptide) in test [1] was 0.0002. Turning to ILLGRHSL (modifications not checked) [ILLGRHSL (PSA position 69, 8-mer)], the binding affinity ratio in test [5] came to 0.001. On to TTVSGLQMAL (modifications not checked) [PAP peptide … (position 291, 10 amino acids)], for which the binding affinity ratio (IC50 of standard peptide / IC50 of test peptide) in test [1] turned out to be 0.002. Consider HTVPLSEDQL (modifications not checked) [… (PAP position 144, 10-mer)], for which, in test [5], the binding affinity ratio amounted to 0.0002. With LTELYFEK (modifications not checked) [LTELYFEK (PAP, position 315)], the binding affinity ratio (IC50 of standard peptide / IC50 of test peptide) in test [2] was 0.01. With IAEAVGLPSI (modifications not checked) [… (PSM position 283, 10-mer)], the binding affinity ratio in test [5] was determined as 0.0001.

In the case of GVLVHPQWV (modifications not checked) [… (Kallikrein position 52 / PSA position 48, 9-mer)], the binding affinity ratio in test [5] stood at 0.0003. With PANEYAYRR (modifications not checked) [… (PSM, position 273)], the binding affinity ratio came to 0.0002 in test [2] and 0.0001 in test [3]. With IASKFSERL (modifications not checked) [… (PSM position 642, 9-mer)], the binding affinity ratio in test [5] came to 0.0001. As to IINEDGNEI (modifications not checked) [… (PSM position 130, 9-mer)], the binding affinity ratio in test [5] is 0.0002. Take VLTAAHCIR (modifications not checked) [… (PSA, position 56)]: the binding affinity ratio in test [2] came to 0.0005; in test [3], 0.0002. For the molecule RAFIDPLGL (modifications not checked) [… (PSM, position 673)], the binding affinity ratio (IC50 of standard peptide / IC50 of test peptide) in test [4] was 0.0001.

SAHDTTVSGL (modifications not checked) [… (PAP, position 287)]: the binding affinity ratio (IC50 of standard peptide / IC50 of test peptide) in test [4] is 0.0002. Take ILGGHRDSWV (modifications not checked) [… (PSM position 373, 10-mer)]: the binding affinity ratio in test [5] amounted to 0.0003. As to TLVFRHGDR (modifications not checked) [… (PAP, position 39)], the binding affinity ratio turned out to be 0.0002 in test [2] and 0.0006 in test [3]. As to SIEPEEFLT (modifications not checked) [… (PSA, position 155)], the binding affinity ratio (IC50 of standard peptide / IC50 of test peptide) in test [4] was 0.0001.

Take TLPSWATEDT (modifications not checked) [PAP peptide … (position 222, 10 amino acids)]: the binding affinity ratio (IC50 of standard peptide / IC50 of test peptide) in test [1] stood at 0.0002. Consider SAVKNFTEI (modifications not checked) [… (PSM, position 634)], for which the binding affinity ratio (IC50 of standard peptide / IC50 of test peptide) in test [4] came to 0.0001. On the same count and under the same terms, the value for RAVCGGVLV (modifications not checked) [… (PSA, position 43)] was 0.0002; that for SIEPEEFL (modifications not checked) [SIEPEEFL (Kallikrein, position 159)] was 0.0001. In the case of ILNHMKRAT (modifications not checked) [… (PAP position 267, 9-mer)], the binding affinity ratio in test [5] was 0.0001. As to TVAQVRGGMV (modifications not checked) [PSM peptide … (position 575, 10 amino acids)], in test [1], the binding affinity ratio (IC50 of standard peptide / IC50 of test peptide) is 0.0005. On the same count and under the same terms, then TVPLSEDQLL (modifications not checked) [PAP peptide … (position 145, 10 amino acids)], with 0.0001. Consider GAVPLIQSRIV (modifications not checked) [Kallikrein (hK2) peptide … (position 16)], for which the values for the binding affinity ratio in test [6] and in test [7] were 0.0003 and 0.0001, respectively. As for SIEPEEFL (modifications not checked) [SIEPEEFL (PSA, position 155)], the binding affinity ratio (IC50 of standard peptide / IC50 of test peptide) in test [4] was determined as 0.0001. Same read-out and setting: then SIEGNYTLRV (modifications not checked) [… (PSM, position 455)], with 0.0001.
